# Assay results taken from paper PMC4063181 (Journal of the American Chemical Society, 2014).
# Legend:
# cross-linking = biological target: the molecule itself; experiment: cross-linking
# solution NMR = biological target: the molecule itself; experiment: solution NMR
protein,measurement,setting,value
"EmrE S107C mutant devoid of wild-type Cys residues (C39S, C41S, C95S, S107C) (natural protein) MNPYIYLGGAILAEVIGTTLMKFSEGFTRLWPSVGTIISYSASFWLLAQTLAYIPTGIAYAIWSGVGIVLISLLSWGFFGQRLDLPAIIGMMLISAGVLIINLLSRCTPH",stoichiometry N,cross-linking,2
EmrE (wild type) (natural protein) MNPYIYLGGAILAEVIGTTLMKFSEGFTRLWPSVGTIICYCASFWLLAQTLAYIPTGIAYAIWSGVGIVLISLLSWGFFGQRLDLPAIIGMMLICAGVLIINLLSRSTPH,binding result,solution NMR,binds
